Reference: patent publication US20100196361A1, “Method of inhibition of vascular development using an antibody” (DYAX CORP., priority 2003, published 2010)
“Also recorded” adds a separate entry of the source.

T1: human Tie1 Fc (Homo sapiens, UniProt P35590)
T1 construct: selected against the Tie1 extracellular domain fused to human Fc or to a histidine purification tag
T1 sequence (P35590 22-759 limits assumed): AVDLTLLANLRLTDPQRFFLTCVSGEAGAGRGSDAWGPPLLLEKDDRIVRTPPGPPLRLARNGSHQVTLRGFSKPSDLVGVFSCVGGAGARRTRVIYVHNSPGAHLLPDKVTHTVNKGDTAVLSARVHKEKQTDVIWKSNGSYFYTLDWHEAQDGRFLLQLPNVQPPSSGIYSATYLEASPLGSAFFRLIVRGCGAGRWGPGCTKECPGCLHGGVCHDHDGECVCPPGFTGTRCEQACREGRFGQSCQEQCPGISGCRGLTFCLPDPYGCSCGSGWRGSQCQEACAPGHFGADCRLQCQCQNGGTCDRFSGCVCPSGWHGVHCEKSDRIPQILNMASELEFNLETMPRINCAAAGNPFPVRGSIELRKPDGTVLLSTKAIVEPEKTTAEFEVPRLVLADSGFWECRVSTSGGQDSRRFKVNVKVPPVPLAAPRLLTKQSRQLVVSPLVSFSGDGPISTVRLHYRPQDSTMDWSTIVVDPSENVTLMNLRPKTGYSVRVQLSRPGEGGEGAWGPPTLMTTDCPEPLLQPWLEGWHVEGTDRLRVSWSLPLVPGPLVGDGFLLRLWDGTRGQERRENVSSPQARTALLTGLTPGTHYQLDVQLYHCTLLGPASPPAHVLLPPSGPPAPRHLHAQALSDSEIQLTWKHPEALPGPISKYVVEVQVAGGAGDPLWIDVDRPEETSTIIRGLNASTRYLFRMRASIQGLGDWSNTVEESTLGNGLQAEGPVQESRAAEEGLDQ

B1: E3: human anti-Tie1 antibody from phage Fab library, reformatted as IgG; HC variable SEQ ID NO:114, LC variable SEQ ID NO:116 (antibody, V domains shown)
VH: EVQLLESGGGLVQPGGSLRLSCAASGFTFSMYGMVWVRQAPGKGLEWVSVISPSGGNTGYADSVKGRFTISRDNSKNTLYLQVNSLRAEDTAVYYCARAPRGYSYGYYYWGQGTLVTVSSASTKGPSVFPLAPSSKSTSGG
VL: DIQMTQSPLSLSASVGDRVTITCRASQGIGHYLAWYQQKPGKVPKLLIYTASTLQSGVPSRFSGSGSGTDFTLTINSLQPEDVATYYCQQFNSYPHTFGQGTRLDIK
modifications: IgG constant regions; Synthetically generated peptide
B2: DX-2210: E3 antibody in which the light chain has been germlined (antibody, V domains shown)
VH: EVQLLESGGGLVQPGGSLRLSCAASGFTFSMYGMVWVRQAPGKGLEWVSVISPSGGNTGYADSVKGRFTISRDNSKNTLYLQVNSLRAEDTAVYYCARAPRGYSYGYYYWGQGTLVTVSSASTKGPSVFPLAPSSKSTSGG
VL: DIQMTQSPSSLSASVGDRVTITCRASQGIGHYLAWYQQKPGKVPKLLIYTASTLQSGVPSRFSGSGSGTDFTLTISSLQPEDVATYYCQQFNSYPHTFGQGTRLEIK

Tests used:
Type in all cases: binding
[1] = system: human platelets; assay: Flow cytometry on human platelets; conditions: total (CD42) and thrombin-activated (CD62) platelets
Procedure: To avoid platelet activation, human platelets were isolated from plasma of healthy donors using the platelet GelSep kit (Biocytex, Marseille, France) kit according to the guidelines of the manufacturer. Platelets were activated by the addition of thrombin to a final concentration of 0.8 U/ml. To distinguish activated from non-activated platelets double staining was performed with Tie1 antibodies/control antibodies and antibody CD42 (total platelets) or CD62 (activated platelets).
After preparation, platelets were resuspended in buffer 2 of the GelSep kit, 10% heat inactivated human serum (incubation buffer) and incubated for 1 hour. […] Platelets were spun down by centrifugation for 10 min at 611 g. Between incubations platelets were washed twice with Buffer 1 of the GelSep kit. Then, Strepatvidin-R-phycoerythrin together with anti-CD42-PercP or anti-CD62-PercP were incubated for 30 minutes at room temperature in incubation buffer After the last incubation and washing detection of bound antibodies was performed by means of flow cytometry on a FACSscan and Epics Altra (Becton Dickinson, Oxnard, Coulter,) and results analyzed. Cells were gated on SSC and anti-CD42-PercP for the total platelets in case non-activated platelets were used and on SSC and anti-CD62-PercP for the activated platelets. […]

[2] = molecular target: T2, mouse Tie1 (Mus musculus, UniProt Q06806); assay: Flow cytometry on mouse endothelial cell lines; conditions: MS1, Le-2, Bend3, SVEC, biotinylated antibody
T2 construct: host or cells: MS1, Le-2, Bend3, SVEC
Procedure: We evaluated if E3 cross reacts with mouse Tie1 in situ and thus if we can evaluate E3 activity in mouse tumor xenograft models binding to mouse endothelial cells was tested and compared with human and transfected cell lines.
Specific binding of the Tie1 antibodies and of control Mabs to mouse endothelial cells was measured by flow cytometry analysis (FACSscan, Becton Dickinson, Oxnard, Epics, Coulter). Mouse endothelial cell lines MS1, Le-2, Bend3, SVEC (ATCC, Rockville) and Tie1 transfected Le-2 cells were stained. Cell staining was modified from existing protocols. About 200,000 cells were used in each experiment: after trypsinization, cells were washed one time in PBS and resuspended PBS, 10% heat inactivated human serum (incubation buffer). […] After the final incubation step bound antibodies were detected by means of flow cytometry on a FACSCan and Epics Altra (Becton Dickinson, Oxnard, Coulter) and results analyzed.
Intracellular Tie1 was measured as described above, except for the addition of Saponin to the incubation buffer to a final concentration of 0.1% during incubations. […] The binding pattern in mouse cell lines detected by flow cytometry is different from the binding pattern in HUVEC in that in mouse cells there is a greater cell surface staining than that compared to primary human endothelial cell lines. […]

[3] = molecular target: T1, human Tie1 Fc; assay: BIAcore, Tie1 Fc over IgG coated on CM5 chip; conditions: IgG immobilised; Human Tie1 Fc analyte
Procedure: The germlined E3 IgG1 stock solution 0.63 mg/ml was diluted 1/50 in a buffer of pH4.5 and the parental E3 IgG1 stock solution 0.56 mg/ml (2143-001) was diluted 1/50 in a buffer of pH 4.5. The IgG were directly coated onto a CM5 chip. The surface of the chips was activated with a 7 minute pulse of 0.05M NHS/0.2M EDC and the IgG was flowed over until 780RU germlined E3-IgG and 728 non germlined E3 IgG was coated onto the surface. All flow cells were subsequently deactivated with a 7 minute pulse of 1M ethanolamine hydrochloride pH 8.5. All analysis was performed in HBS buffer. Purified recombinant human Tie1 Fc was diluted 1/28.7 in HBS to obtain a 400 nM stock solution. Serial dilutions were made to obtain 200 nM, 100 nM, 50 nM and 25 nM Tie1 Fc stocks. For analysis of the association phase samples were injected at 30 μl/min for 8.3 minutes using kinject program. This was followed by a 40 minutes dissociation phase. Any antigen remaining associated to the surface was stripped from the IgG surface at a flow of 50 μl/min with two injections of 10 mM glycine pH 1.5 for 30 seconds. All samples were run and analyzed in duplicate
Sensorgrams were analyzed using the simultaneous ka/kd fitting program with 1:1 model in the BIAEVALUATION™ software 3.1.

T2 sequence (Q06806 23-1134): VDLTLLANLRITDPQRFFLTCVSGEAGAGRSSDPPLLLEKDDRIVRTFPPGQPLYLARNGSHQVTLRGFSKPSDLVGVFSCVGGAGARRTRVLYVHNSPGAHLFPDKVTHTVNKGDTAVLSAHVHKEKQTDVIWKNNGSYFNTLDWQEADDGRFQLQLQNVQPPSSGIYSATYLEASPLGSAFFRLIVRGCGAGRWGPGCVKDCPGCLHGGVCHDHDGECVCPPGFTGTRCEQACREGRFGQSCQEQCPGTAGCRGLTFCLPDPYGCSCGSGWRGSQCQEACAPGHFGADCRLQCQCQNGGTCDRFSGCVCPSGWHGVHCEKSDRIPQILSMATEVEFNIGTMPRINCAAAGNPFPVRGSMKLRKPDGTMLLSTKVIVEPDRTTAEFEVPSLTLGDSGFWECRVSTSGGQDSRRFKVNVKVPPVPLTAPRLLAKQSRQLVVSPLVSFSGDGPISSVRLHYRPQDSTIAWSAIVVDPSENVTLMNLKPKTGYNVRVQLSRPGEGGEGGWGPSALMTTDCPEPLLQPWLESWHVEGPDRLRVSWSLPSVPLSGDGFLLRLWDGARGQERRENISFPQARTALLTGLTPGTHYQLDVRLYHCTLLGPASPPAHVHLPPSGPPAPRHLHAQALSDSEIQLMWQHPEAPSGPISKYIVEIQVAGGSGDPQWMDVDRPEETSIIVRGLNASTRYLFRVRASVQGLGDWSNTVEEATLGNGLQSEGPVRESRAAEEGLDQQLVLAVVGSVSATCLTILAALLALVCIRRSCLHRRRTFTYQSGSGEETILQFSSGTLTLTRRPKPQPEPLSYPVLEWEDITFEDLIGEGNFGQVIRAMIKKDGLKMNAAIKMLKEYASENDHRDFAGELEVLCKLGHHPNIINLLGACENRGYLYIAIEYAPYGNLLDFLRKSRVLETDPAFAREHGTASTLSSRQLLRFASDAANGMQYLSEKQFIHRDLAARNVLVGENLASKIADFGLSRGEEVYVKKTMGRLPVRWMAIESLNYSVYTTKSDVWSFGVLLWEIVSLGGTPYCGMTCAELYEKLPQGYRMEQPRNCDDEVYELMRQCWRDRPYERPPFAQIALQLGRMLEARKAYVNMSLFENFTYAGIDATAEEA

Molecule	binding to platelets [1]	binding to platelets ([1]; listed as DX-2200)	binding to mouse endothelial cell lines [2]	koff [3] [s⁻¹]	kon [3] [M⁻¹ s⁻¹]
B1	Only a background number of CD42 positive cells are labeled; also recorded: no significant binding to total platelets, nor to activated platelets	did not show significant binding to platelets	binds to mouse endothelial cell lines	3.61e-05	6190
B2			stained positively	3.67e-05	7090
